In article doi:10.1101/2023.01.10.523494 (bioRxiv, 2023):

Molecular target: SARS-CoV-2 RBD for crystallisation (SARS-CoV-2 (wildtype), UniProt P0DTC2)
Assay: crystal structure

Binder | binding result
mRBD2 Fab fragment (Fab, V domains shown) VH: QVQLQQSGAELARPGASVKLSCKASGYTFISNGISWVKQRTGQGLEWIGEIYPRNGNTYYNEKFKGKATLTADKSSSTAYMELRSLTSEDSAVFFCARDYYYGSFDYWGQGTTLTVSS VL: DIQMTQSPSSLSASLGERVSLTCRASREISGYLTWLQQKPDGTIKRLIYAASTLDSGVPKRFSGSRSGSDYSLTISSLESEDFADYYCLQYASYPWTFGGGTKLEIK | binds

Molecular target: receptor binding domain (RBD) of the wildtype (WT) SARS-CoV-2 spike protein (SARS-CoV-2, wildtype (sequence as in …))
Assay: not given

Binder | binding result
mRBD21 (antibody, V domains shown) VH: QIQLVQSGPELKKPGETVKISCKASGYTFTKYPMHWVKQAPGKGFKWMGMIYTDTGEPTYAEEFKGRCAFSLETSASTAYLQINNLKNEDTATYFCVRWGGSYALDYWGQGTSVTVSS VL: DIVLTQSPASLAVSLGQRATISCRASESVDSYGNSFMHWYQQKPGQPPKLLIYRASNLESGIPARFSGSGSRTDFTLTINPVEADDVATYYCQQSNEDPLTFGAGTKLELK | binds
mRBD22 (antibody, V domains shown) VH: QIQLVQSGPELKKPGETVKISCKASGYTFTEYPMHWVKQAPGKGFKWMGMIYTDTGEPTYAEEFKGRFAFSLETSASTAYLQINNLKNEDTATYFCVRGGYYYFDYWGQGTTLTVSS VL: NIVLTQSPASLAVSLGQRATISCRASESVDSYGNSFMHWYQQKPGQPPKLLIYLASNLESGVPARFSGSGSRTDFTLTIDPVEADDAATYYCQQNNEDPWTFGGGTKLEIK | binds
mRBD24 (antibody, V domains shown) VH: EVQLQQSGPDLVKPGASVKISCKASGYTFTDYYMNWVKQSHGKSLEWIGDINPNNGGTYYNQKFKGKATLTVDKSSSTAYMELRSLTSEDSAVYYCARQLRRWGQGTLVTVSA VL: not shown | binds
hRBD11 (antibody, V domains shown) VH: QVQLQESGPGLVKPSQTLSLTCTVSGGSISSGGYYWSWIRQHPGKGLEWIGYIFYSGSTYYNPSLKSRVIISVDTSKNQFSLKLSSVTAADTAAYYCARVNRVYGSGSYSLDPWGQGTLVTVSS VL: QSALTQPASVSGSPGQSITISCTGTSRDVGDYDYVSWYQQHPGKAPKLMIYEGSERPSGVSNRFSGSKSGNTASLTISGLQAEDEADYYCCSYTGSSTSFLFGTGTKVTVL | binds
mRBD25 (antibody, V domains shown) VH: QVQLQQSGPELVKPGASVKISCKASGYAFSNSWMNWVKQRPGKGLEWIGRIYPGDGDTNYNGKFKGKATLTADKSSSTAYMQLSSLTSEDSAVYFCANYYGDYWGQGTTLTVSS VL: QIVLTQSPALMSASPGEKVTMTCSASSSVSYMYWYQQKPRSSPKPWIYLTSNLASGVPARFSGSGSGTSYSLTISSMEAEDAATYYCQQWSSNPYTFGGGTKLEIK | binds
mRBD23 (antibody, V domains shown) VH: QVQLQQPGAELVRPGSSVKLSCKASGYTFTSYWMHWVKQRPIQGLEWIGNIDPSDSETHYNQKFKDKATLTVDKSSSTAYMQLSSLTSEDSAVYYCTRPGSLRSRGWYFDVWGTGTTVTVSS VL: DIVMTQAAPSVPVTPGESVSISCRSSKSLLHSNGNTYLYWFLQRPGQSPQLLIYRMSNLASGVPDRFSGSGSGTAFTLRISRVEAEDVGVYYCMQHLEYPYTFGGGTKLEIK | binds
hRBD1 (antibody, V domains shown) VH: QVQLVQSGSELKKPGASVKVSCKASGNTLTNHALNWVRQAPGQGLEWMGWINTNTGIPTYAQGFTGRFVFSLDTSVSTAYLQISSLKAEDTAVYYCARVGQTAIAALDDAFDIWGQGTMVTVSS VL: not shown | binds
hRBD2 (antibody, V domains shown) VH: QVQLVQSGSELKKPGASVKVSCKASGYTFSNYAINWVRQAPGQGLEWMGWINTNTGHPTYAQGFTGRFVFSLDASVTTAYLQISSLKAEDTAVYYCARVGRTAIAALDDAFDIWGQGTMVTVSS VL: not shown | binds
hRBD15 (antibody, V domains shown) VH: QVQLVQSGAEVKKPGASVKVSCKASGYTFTSQYMHWVRQAPGQGLEWMGIINPSGGSTSYAQKFQGRVTMTSDTSTSTVYMELSSLRSEDTAVYYCARDIYFVPARGGFDPWGQGTLVTVSS VL: EIVLTQSPGTLSLSPGERATLSCRASQSIISSYLAWYQQKPGQAPRLLIYGASSRATGIPDRFSGSGSGTDFTLTISRLEPEDFAVYYCQQSGSAPRYTFGQGTKLEIK | binds
hRBD10 (antibody, V domains shown) VH: EVQLVESGGGLVQPGGSLRLSCSASGFTFTTYNMNWVRQAPGKGLEWVSYISSSSSTIYYADSVEGRFTISRDNAKNSLYLQMNSLRDEDTAVYYCARGVGATSYYYHGMDVWGQGTTVSVSS VL: DIQMTQSPSSLSASVGDRVTITCRASQSIYSYLNWYKQKAGKAPKLLIYAASSLQSGVPSRFSGSGSGTDFTLTIISLQPEDFATYYCQQSYSTPPTFGQGTKVEIK | binds
hRBD14 (antibody, V domains shown) VH: EVQLVESGGGLVQPGGSLRLSCAASGFSFSSSDMHWVRQATGKGLEWVSGIGTSGDTYYLGSVKGRFTISRDDAKNSFYLQMNSLRAGDTAVYYCARGEMAATGLWYYFDYWGQGTLVTVSS VL: not shown | binds
hRBD13 (antibody, V domains shown) VH: QVQLVESGGGVVQPGRSLRLSCAVSGFTFRNYGMDWVRQAPGKGLEWVAVISYDGSNKYYADSVKGRFTISRDNSKNTLFLHLNSLRAEDTAVYYCAKAGGGPYCGGGNCYMHYFDYWGQGTQVTVSS VL: DIQMTQSPSSLSASVGDRVTITCQASQDINNYLNWYQQKPGKAPKLLIYDASNLETGVPLRFSGSGSATHFSFTISSLQPEDIATYYCQQYDHLPCTFGQGTKLEIR | binds
hRBD6 (antibody, V domains shown) VH: QVQLQQWGAGLLKPSETLSLSCAVYGGAFSDYYWSWIRQPPGKGLEWIGEIDLSGSTNYNPSLKSRVTISVDTSKNQFSLKLISVTAADTAVYYCARTHLIGYCSGGSCYSGPDPSNWFDPWGQGTLVTVSS VL: SSELTQDPAVSVALGQTVRITCQGDSLRSYYASWYQQKPGQAPVLVIYGKNNRPSGIPDRFSGSSSGNTASLTITGAQAEDEADYYCNSRDTSGHHPVFGGGTKLTVL | binds
